The source of these data is patent US20140275487A1.

In this test the target is T4L-β2AR (N-terminally fused T4 lysozyme-β2AR construct truncated in position 365), BI-167107 bound (human). The test is described as follows: crystal structure.

The substance “Gαs subunit of the heterotrimeric Gs protein (from UniProt P04896 2-394)” showed a buried surface for GαsRas of 1300 A^2, a buried surface for the β2AR of 1280 A^2 and a total buried surface of the β2AR-GαsRas interface of 2580 A^2.
